Results published in patent publication US20100249021A1.

Key:
Assay in all cases: cell-based or functional assay
[1] = molecular target: membrane protein HA of recombinant avian influenza virus QH-WSN (HA of H5N1 strain A/bar-headed goose/Qinghai/1/05) (avian influenza virus H5N1, strain A/bar-headed goose/Qinghai/1/05)
[2] = molecular target: membrane protein HA of recombinant human influenza virus A/WSN/33 (H1N1) (human influenza virus A/WSN/33 (H1N1)) (UniProt P03454)
[3] = molecular target: membrane protein HA of recombinant avian influenza virus QH-WSN (HA of H5N1 strain A/bar-headed goose/Qinghai/1/05) (avian influenza virus H5N1, strain A/bar-headed goose/Qinghai/1/05); remark: listed apart in the source
[4] = molecular target: membrane protein HA of recombinant human influenza virus A/WSN/33 (H1N1) (human influenza virus A/WSN/33 (H1N1)) (UniProt P03454); remark: listed apart in the source

Molecule: fusion protein HR1-EGFP expressed on the membrane of MDCK cells (from UniProt P08138 251-272)
- plaque inhibitory rate on cells expressing the fusion protein [1]: 25%
- plaque inhibitory rate on cells expressing the fusion protein [2]: 11%

Molecule: fusion protein HR2-EGFP expressed on the membrane of MDCK cells (from UniProt P08138 251-272)
- plaque inhibitory rate on cells expressing the fusion protein [1]: 57.8%
- plaque inhibitory rate on cells expressing the fusion protein [2]: 43%

B1: polypeptide HR1 combined with HR2A (peptide)
peptide 1: KESTQKAIDGVTNKVNSIIDK
peptide 2: RRIENLNKKMEDGFLDVWTY
- IC50, plaque inhibition on MDCK cells, peptide combination [3]: 43.6 µM
- IC50, plaque inhibition on MDCK cells, peptide combination [4]: 52.9 µM

B2: polypeptide HR1 combined with HR2B (peptide)
peptide 1: KESTQKAIDGVTNKVNSIIDK
peptide 2: NAELLVLMENERTLDFHDSNVKN
- IC50, plaque inhibition on MDCK cells, peptide combination [3]: 36.7 µM
- IC50, plaque inhibition on MDCK cells, peptide combination [4]: 62.5 µM

B3: polypeptide HR1 combined with HR2C (peptide)
peptide 1: KESTQKAIDGVTNKVNSIIDK
peptide 2: FHDSNVKNLYDKVRLQ
- IC50, plaque inhibition on MDCK cells, peptide combination [3]: 41.6 µM
- IC50, plaque inhibition on MDCK cells, peptide combination [4]: 30 µM
